± gives the standard deviation of the averaged measurements.
System: ATP
Test: switch fluorescence ratio, 500 uM ATP over buffer (Cy3 cluster intensity, sum of 5 cycles each) (fold (ratio)); higher = stronger signal-on switching upon ATP binding; sequences stand for … in TCGTCGGCAGCGTCAGATGTGTATAAGAGACAGTTTTTTTTTTTTTTTTTTTTTTTTT…TC
Details: aptamer strand: ATP DNA aptamer (quencher-CACCTGGGGGAGTATTGCGGAGGAAGG + anchor), 100 nM annealed; ATP concentration: 500 uM
Summary of the method: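 Per cluster, summed Cy3 intensity from the target cycles was divided by that from the buffer cycles to give the fluorescence ratio, then averaged per switch-domain sequence. Clusters outside 100-1000 RFU were excluded. The Cy3-labelled switching-strand clusters, on a modified Illumina MiSeq flow-cell, were annealed to 100 nM quencher-labelled ATP aptamer and imaged in selection buffer, then after 15 min with 500 uM ATP at 22 °C, for five cycles with NaOH stripping and re-annealing between them.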
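Note: ATP exposure 15 min at 22 °C before imaging.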

| Sequence | switch fluorescence ratio |
| --- | --- |
| GGGGTTAGGG | 1 ± 0.032 |
| TGCGGGGAGC | 0.975 ± 0.041 |
| TCTCGGGGGG | 1.02 ± 0.065 |
| CTTCTACCTG | 1.01 ± 0.035 |
| CGATTGGGTC | 0.999 ± 0.013 |
| GTTTATGCAT | 1 ± 0.022 |
| GATGAGGATG | 0.987 ± 0.014 |
| TGGTCCTGGT | 0.997 ± 0.019 |
| ACGGTTCCAT | 0.97 ± 0.057 |
| GATTAACGGT | 1.012 ± 0.0084 |
| TGTGAAACGG | 0.9916 ± 0.0072 |
| AACGTCTGGA | 0.9725 ± 0.0037 |
| TTTTCCGCGC | 2.08 ± 0.47 |
| ATGGACTAGG | 1.02 ± 0.022 |
| TGGGTTAGCT | 1.04 ± 0.039 |
| ATTGTGTTTT | 0.99 ± 0.062 |
| ATGAGGCATT | 1.04 ± 0.016 |
| TGGAGGAGGG | 1 ± 0.032 |
| CAAGACGTTG | 0.974 ± 0.012 |
| CCGTTTAGAT | 1.01 ± 0.011 |
| ACACATTGGA | 1.03 ± 0.0023 |

| Sequence | switch fluorescence ratio |
| --- | --- |
| CCATAGAGAA | 1.02 ± 0.043 |
| TAGGAATACG | 1.24 ± 0.036 |
| CAGGCAGGAC | 2.24 ± 0.17 |
| TCTGGGTGGA | 0.994 ± 0.015 |
| TTTTGAGATT | 0.995 ± 0.011 |
| GGTTAAAGGT | 1.02 ± 0.026 |
| TATGGGCAGT | 1.007 ± 0.0017 |
| GGGGCCGGGT | 0.998 ± 0.02 |
| GATAGAGATT | 0.9961 ± 0.0066 |
| AATAGGGCAG | 1.009 ± 0.0078 |
| TTGGGGGTAA | 0.987 ± 0.018 |
| AAGTCTGCAG | 1.002 ± 0.01 |
| GGGTAGCCTG | 0.982 ± 0.02 |
| AAGGGGGG | 0.994 ± 0.062 |
| TGGCTGACAG | 0.992 ± 0.023 |
| CGCTAATTGG | 1.09 ± 0.014 |
| TGGGTATAAA | 0.976 ± 0.029 |
| ATTAGGTATG | 0.969 ± 0.016 |
| GGCGATCATA | 0.984 ± 0.024 |
| GATGAGGGGT | 0.986 ± 0.038 |
| AGGGGATTTT | 1.04 ± 0.056 |
